# Source: paper PMC3251506
# Biological target: Epstein-Barr virus glycoprotein H / glycoprotein L complex (gH/gL), wild type (Epstein-Barr virus) (UniProt P03231)
# Assay: CELISA
substance,measurement,value
"Epstein-Barr virus glycoprotein 42 (gp42), wild type, soluble form in medium (from UniProt P03205) (natural protein)",percent decrease of gH/gL binding to HEK 293 cells by soluble gp42,50%
